In article PMC10603098:

Legend:
[1] = molecular target: GluA tetramers (sum of all co-purified GluA1-4 proteins divided by four) (rat (endogenous in rat brain)); assay: affinity purification with mass spectrometry; multi-epitope AP-MS: three polyclonal anti-GSG1L antibodies on protein A Dynabeads, 2 h; membranes of adult (P59) rat brain solubilised in CL-47; GSG1L KO rats as negative control; minimum tnR of 0.25 as indicator of specific interaction
[2] = molecular target: homomeric GluA2Q_(flip) AMPA receptor, wild type (rat) (UniProt P19491)
[3] = molecular target: homomeric GluA2Q_(flip) E658K AMPA receptor (rat) (UniProt P19491)
[4] = molecular target: GluA1 E651K/GluA2(R) AMPA receptor heteromer (rat) (UniProt P19490)
[5] = molecular target: GluA1 E651K/GluA2(R) E658K AMPA receptor heteromer (rat) (UniProt P19490)
[6] = molecular target: GluA1/GluA2(R) AMPA receptor heteromer, wild type (rat) (UniProt P19490)
[7] = molecular target: GluA1/GluA2(R) E658K AMPA receptor heteromer (rat) (UniProt P19490)

Substance	stoichiometry N (GSG1L per GluA tetramer) [1]	fast time constant of recovery from desensitization (τ (recovery), two-pulse protocol, 10 mM L-Glu, outside-out patches of HEK293T/17 cells co-expressing GluA2 and GSG1L) [2]	slow time constant of recovery from desensitization (τ (recovery), two-pulse protocol, 10 mM L-Glu, outside-out patches of HEK293T/17 cells co-expressing GluA2 and GSG1L) [2]	single time constant of recovery from desensitization of GluA2 E658K co-expressed with GSG1L (the mutation eliminated the ability of GSG1L to slow recovery) [3]	time constant of recovery from desensitization (mono-exponential) of heteromers with EK on GluA1 only, co-expressed with GSG1L [4]	single time constant of recovery from desensitization of heteromers with EK on both GluA1 and GluA2, co-expressed with GSG1L [5]	fast time constant of recovery from desensitization of GluA1/A2 heteromers co-expressed with GSG1L [6]	slow time constant of recovery from desensitization of GluA1/A2 heteromers co-expressed with GSG1L [6]	fast time constant of recovery from desensitization of heteromers with EK on GluA2 only, co-expressed with GSG1L [7]	slow time constant of recovery from desensitization of heteromers with EK on GluA2 only, co-expressed with GSG1L [7]
germ cell-specific gene 1-like protein (GSG1L) (from UniProt D3ZK93 1-322) (natural protein)	1.74									
mouse GSG1L (co-expressed, +GSG1L) (from UniProt D3Z7H4 1-322) (natural protein)		37.5 ms	322 ms	48 ms	338 ms	130 ms	23.7 ms	548 ms	80.6 ms	446 ms
